Data: publication PMC8698333

How the values were obtained:
[1] = target: human kappa opioid receptor Tango construct (tTA-hKOR) (human) (UniProt P41145)
[2] = target: human kappa opioid receptor fused to the alpha7 nicotinic signal peptide and eGFP (pcDNA3.1) (human) (UniProt P41145)
[3] = target: human kappa opioid receptor, stably expressed in CHO cells (hKOR-CHO) (human) (UniProt P41145)
Sequence of human kappa opioid receptor, stably expressed in CHO cells (hKOR-CHO) (human) (P41145 whole entry): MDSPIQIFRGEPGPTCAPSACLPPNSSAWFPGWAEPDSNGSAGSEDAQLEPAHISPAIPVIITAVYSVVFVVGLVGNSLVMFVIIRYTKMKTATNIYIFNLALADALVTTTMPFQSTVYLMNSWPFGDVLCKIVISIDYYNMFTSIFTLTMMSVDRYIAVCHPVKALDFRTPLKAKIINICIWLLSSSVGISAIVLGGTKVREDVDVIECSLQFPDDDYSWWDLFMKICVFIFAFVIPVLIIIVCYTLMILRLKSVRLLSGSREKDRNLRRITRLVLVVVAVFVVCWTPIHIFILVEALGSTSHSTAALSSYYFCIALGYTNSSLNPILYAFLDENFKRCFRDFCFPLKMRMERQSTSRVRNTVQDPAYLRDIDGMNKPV

Sequence of human kappa opioid receptor fused to the alpha7 nicotinic signal peptide and eGFP (pcDNA3.1) (human) (P41145 whole entry, the tested form may be a part): as the sequence (P41145 whole entry) above
Sequence of human kappa opioid receptor Tango construct (tTA-hKOR) (human) (P41145 whole entry, the tested form may be a part): as the sequence (P41145 whole entry) above

Substance | PRESTO-Tango β-arrestin recruitment: fold shift of EC50 against the mean of same day DynA WT controls [1] | TRUPATH (BRET) G-protein dissociation, Gα3 subunit: fold shift of EC50 against the mean of same day DynA WT controls [2] | EC50 of [35S]GTPγS binding to hKOR-CHO cell membranes (G-protein activation) [3] | efficacy (maximal [35S]GTPγS binding to hKOR-CHO cell membranes) [3]
Dynorphin A L5S mutant peptide | 13 fold shift | 7 fold shift | – | –
Dynorphin A R6W mutant peptide | 16 fold shift | 11 fold shift | 105 nM | 1240 CPM
Dynorphin A R9C mutant peptide | 5 fold shift | 3 fold shift | – | –
